In IntAct's records for PubMed 28436967:

B1: Katanin p60 ATPase-containing subunit A1 (Mus musculus), Q9WV86 (parent)
chain: MSLQMIVENVKLAREYALLGNYDSAMVYYQGVLDQMNKYLYSVKDTHLRQKWQQVWQEINVEAKQVKDIMKTLESFKLDITSLQAAQHELPAAEGEVWSLPVPVERRPLPGPRKRQSSQHSDPKPHSNRPSTVVRAHRPSPQNLHNDRGKAVRSREKKEQSKGREEKNKLPAAVTEPEANKFDGTGYDKDLVEALERDIISQNPNVRWYDIADLVEAKKLLQEAVVLPMWMPEFFKGIRRPWKGVLMVGPPGTGKTLLAKAVATECKTTFFNVSSSTLTSKYRGESEKLVRLLFEMARFYSPATIFIDEIDSICSRRGTSEEHEASRRMKAELLVQMDGVGGASENDDPSKMVMVLAATNFPWDIDEALRRRLEKRIYIPLPSAKGREELLRISLRELELADDVNLASIAENMEGYSGADITNVCRDASLMAMRRRIEGLTPEEIRNLSREAMHMPTTMEDFEMALKKISKSVSAADIERYEKWIVEFGSC

Variants of: B1
Conditions: with ktnb1_mouse Katnb1, Q8BG40
ktnb1_mouse Katnb1, Q8BG40, sequence (Q8BG40 whole entry): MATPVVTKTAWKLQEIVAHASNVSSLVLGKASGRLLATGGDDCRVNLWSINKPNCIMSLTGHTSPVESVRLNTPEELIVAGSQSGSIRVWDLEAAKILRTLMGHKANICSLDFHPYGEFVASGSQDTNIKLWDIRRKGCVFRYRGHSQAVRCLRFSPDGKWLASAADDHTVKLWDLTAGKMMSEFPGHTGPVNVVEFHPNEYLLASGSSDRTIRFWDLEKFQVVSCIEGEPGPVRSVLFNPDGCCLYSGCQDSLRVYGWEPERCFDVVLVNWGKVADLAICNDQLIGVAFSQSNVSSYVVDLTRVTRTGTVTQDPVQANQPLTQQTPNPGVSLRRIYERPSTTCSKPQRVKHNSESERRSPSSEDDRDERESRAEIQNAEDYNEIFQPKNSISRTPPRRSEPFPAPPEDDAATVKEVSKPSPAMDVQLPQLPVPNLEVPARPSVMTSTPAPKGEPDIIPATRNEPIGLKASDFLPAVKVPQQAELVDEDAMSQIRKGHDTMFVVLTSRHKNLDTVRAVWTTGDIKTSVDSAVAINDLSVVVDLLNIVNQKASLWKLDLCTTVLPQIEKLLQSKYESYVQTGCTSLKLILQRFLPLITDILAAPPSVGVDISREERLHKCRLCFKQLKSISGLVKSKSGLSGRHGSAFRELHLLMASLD

| Variant | effect of a mutation on the interaction |
| --- | --- |
| L18A | with no effect |
| L19A | with no effect |
